These results are taken from patent US20140044711A1.

Experiment [1] has as its target Fc receptors on the surface of THP1 cells (Fc bearing human myeloid/monocytic cell line) (human). The experiment is described as follows: cell-based or functional assay.
The target is the same in experiment [2]. The experiment is described as follows: FACS, mean fluorescence intensity of AF-647 labeled protein bound to THP1 cells. (In general: A flow cytometer gives signals particle by particle.)

In experiment [1], “RNase-Fc fusion protein with a mutant Fc (P238S, P331S) (mtRNasemgIgG)” returned a cell death of THP1 cells by FACS, RNase Fc mutant compared to wild type of 3 to 5 fold; a fold decrease in cell death of THP1 cells (Annexin V binding and propidium iodide binding), RNase-Fc mutant compared to RNase-wild type Fc fusion protein of 3 fold.

“RSLV-132 (wthRNase-SCC-mthIgG1 P238S P331S) (Fc fusion)” had a fold reduction in Fc receptor binding relative to RSLV-124 in experiment [2] above 4 fold.
